B1: Arabidopsis thaliana ethylene receptor ETR2 (AtETR2), full-length, type-II subfamily (receptor, UniProt Q0WPQ2 1-773, looked up)
chain: MVKEIASWLLILSMVVFVSPVLAINGGGYPRCNCEDEGNSFWSTENILETQRVSDFLIAVAYFSIPIELLYFVSCSNVPFKWVLFEFIAFIVLCGMTHLLHGWTYSAHPFRLMMAFTVFKMLTALVSCATAITLITLIPLLLKVKVREFMLKKKAHELGREVGLILIKKETGFHVRMLTQEIRKSLDRHTILYTTLVELSKTLGLQNCAVWMPNDGGTEMDLTHELRGRGGYGGCSVSMEDLDVVRIRESDEVNVLSVDSSIARASGGGGDVSEIGAVAAIRMPMLRVSDFNGELSYAILVCVLPGGTPRDWTYQEIEIVKVVADQVTVALDHAAVLEESQLMREKLAEQNRALQMAKRDALRASQARNAFQKTMSEGMRRPMHSILGLLSMIQDEKLSDEQKMIVDTMVKTGNVMSNLVGDSMDVPDGRFGTEMKPFSLHRTIHEAACMARCLCLCNGIRFLVDAEKSLPDNVVGDERRVFQVILHIVGSLVKPRKRQEGSSLMFKVLKERGSLDRSDHRWAAWRSPASSADGDVYIRFEMNVENDDSSSQSFASVSSRDQEVGDVRFSGGYGLGQDLSFGVCKKVVQLIHGNISVVPGSDGSPETMSLLLRFRRRPSISVHGSSESPAPDHHAHPHSNSLLRGLQVLLVDTNDSNRAVTRKLLEKLGCDVTAVSSGFDCLTAIAPGSSSPSTSFQVVVLDLQMAEMDGYEVAMRIRSRSWPLIVATTVSLDEEMWDKCAQIGINGVVRKPVVLRAMESELRRVLLQADQLL
modifications: Alexa Fluor 488 succinimidyl-ester label where used as the labeled partner in MST
notes: ETR2, Arabidopsis thaliana, UniProt Q0WPQ2, full-length, codon optimized cDNA according to NCBI NM_113216.3; The thrombin site of pGEX-4T-1 was changed to a TEV site (ENLYFQG); No cleavage is described; The purified protein runs at an apparent 120 kDa, so GST is probably still attached; The same construct was used with and without the Alexa Fluor 488 label; source: E. coli C43 (DE3), solubilised …

Data set [1] concerns the molecule itself. Kind of data set: MST; 40 nM Alexa Fluor 488-labeled receptor (AtETR1 or AtETR2); unlabeled AtETR1 or AtETR2 (4 µM to 0.49 nM) or ETR1-TM C4SC6S (16 µM to 0.98 nM) titrated; 0.0075% (w/v) FosCholine-16; 60% MST power; 1:1 model.
The target in data set [2] is T1, Arabidopsis thaliana EIN2 C-terminus (AtEIN2 479-1294), soluble cytosolic domain (Arabidopsis thaliana, UniProt Q9S814 479-1294, Alexa Fluor 488 succinimidyl-ester label where used as the labeled partner in MST).
T1 construct: source: recombinant, expressed and purified as previously described (Bisson et al., 2016)
T1 sequence (looked up): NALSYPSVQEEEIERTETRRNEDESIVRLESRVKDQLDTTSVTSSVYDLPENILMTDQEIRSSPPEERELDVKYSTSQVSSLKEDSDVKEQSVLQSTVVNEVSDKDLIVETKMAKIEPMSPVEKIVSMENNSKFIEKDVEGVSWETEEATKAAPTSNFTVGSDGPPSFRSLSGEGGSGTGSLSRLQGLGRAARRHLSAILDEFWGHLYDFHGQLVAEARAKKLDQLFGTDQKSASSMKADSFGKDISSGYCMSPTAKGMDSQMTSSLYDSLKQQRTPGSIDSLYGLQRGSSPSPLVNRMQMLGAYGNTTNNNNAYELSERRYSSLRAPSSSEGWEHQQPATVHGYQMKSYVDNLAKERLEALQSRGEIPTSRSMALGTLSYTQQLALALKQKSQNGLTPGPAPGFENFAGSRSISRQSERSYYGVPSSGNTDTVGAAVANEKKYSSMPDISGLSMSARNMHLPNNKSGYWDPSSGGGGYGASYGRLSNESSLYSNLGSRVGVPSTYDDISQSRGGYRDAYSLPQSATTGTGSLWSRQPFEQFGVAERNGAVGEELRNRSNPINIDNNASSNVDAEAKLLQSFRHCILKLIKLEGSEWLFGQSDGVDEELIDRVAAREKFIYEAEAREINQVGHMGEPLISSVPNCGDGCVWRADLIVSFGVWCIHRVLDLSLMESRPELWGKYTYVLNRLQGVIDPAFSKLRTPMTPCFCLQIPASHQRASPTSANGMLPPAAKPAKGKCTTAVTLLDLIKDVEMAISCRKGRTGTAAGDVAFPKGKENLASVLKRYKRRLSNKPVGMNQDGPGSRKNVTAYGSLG
Kind of data set: MST; 75 nM Alexa Fluor 488-labeled AtEIN2 479-1294; unlabeled AtETR2 titrated 4 µM to 1.95 nM; ambient temperature; 60% MST power; 1:1 model; apparent Kd. As to conditions: both partners purified.

The target of data set [3] is T1, Arabidopsis thaliana EIN2 C-terminus …. Put plainly: MST; 20 nM Alexa Fluor 488-labeled AtETR2 (MST buffer 1: 50 mM HEPES/NaOH pH 7.8, 300 mM NaCl, 5% glycerol, 0.015% FosCholine-16); unlabeled AtEIN2 479-1294 (MST buffer 3) titrated 2 µM to 0.98 nM; 20% MST power; 1:1 model; apparent Kd. As to conditions: both partners purified.
Data set [4] has as its target T2, Isolated transmembrane domain of AtETR1 (aa 1-157) with C4S and C6S (Arabidopsis thaliana, UniProt P49333 1-157, C4S | C6S).
T2 sequence: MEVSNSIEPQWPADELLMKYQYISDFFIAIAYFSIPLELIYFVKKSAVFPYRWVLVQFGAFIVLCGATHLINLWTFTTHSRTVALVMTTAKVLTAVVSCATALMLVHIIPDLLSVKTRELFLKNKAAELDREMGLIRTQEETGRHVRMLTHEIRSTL
Kind of data set: MST; ETR2 Alexa488-labeled.

Data set [5] addresses T3, Arabidopsis thaliana Raf-like protein kinase CTR1 (AtCTR1), full-length, fused to mCerulean (Arabidopsis thaliana, UniProt Q05609 1-821, Alexa Fluor 488 succinimidyl-ester label).
T3 construct: CONSTITUTIVE TRIPLE RESPONSE 1 (CTR1), Arabidopsis thaliana, UniProt Q05609, full-length cDNA according to NCBI NM_120454.4; The CTR1 coding region was extended by mCerulean in pET30a; source: E. coli BL21 (DE3) with pRARE, purified (Ni-NTA)
T3 sequence (looked up): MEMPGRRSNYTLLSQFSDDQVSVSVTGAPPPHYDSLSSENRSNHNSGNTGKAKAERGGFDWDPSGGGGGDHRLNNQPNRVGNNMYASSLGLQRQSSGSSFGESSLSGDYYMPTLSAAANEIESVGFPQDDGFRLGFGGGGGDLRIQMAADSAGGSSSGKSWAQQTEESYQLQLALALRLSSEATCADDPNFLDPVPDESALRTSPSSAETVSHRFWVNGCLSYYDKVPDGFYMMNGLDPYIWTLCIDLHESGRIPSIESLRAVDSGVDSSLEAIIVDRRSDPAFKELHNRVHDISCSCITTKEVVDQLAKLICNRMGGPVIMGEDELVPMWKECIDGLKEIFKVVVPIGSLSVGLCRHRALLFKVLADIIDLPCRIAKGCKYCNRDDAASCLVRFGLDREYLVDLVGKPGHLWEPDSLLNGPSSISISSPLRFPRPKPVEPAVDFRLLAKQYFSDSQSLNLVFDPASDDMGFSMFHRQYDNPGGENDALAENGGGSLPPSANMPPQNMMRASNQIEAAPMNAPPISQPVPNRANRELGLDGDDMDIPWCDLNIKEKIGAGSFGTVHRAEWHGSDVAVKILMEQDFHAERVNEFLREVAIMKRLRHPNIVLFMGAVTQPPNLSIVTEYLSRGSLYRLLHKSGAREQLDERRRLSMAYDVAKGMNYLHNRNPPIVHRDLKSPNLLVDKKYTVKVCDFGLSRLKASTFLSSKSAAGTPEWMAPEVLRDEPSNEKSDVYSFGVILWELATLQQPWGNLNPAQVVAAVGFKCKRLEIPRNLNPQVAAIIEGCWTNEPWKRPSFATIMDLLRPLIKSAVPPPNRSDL
Put plainly: MST; Alexa Fluor 488-labeled AtCTR1 (MST buffer 3; 50 nM with AtETR1, 20 nM with AtETR2); unlabeled receptors (MST buffer 2) titrated 4 µM to 0.98 nM; 60% MST power; premium capillaries and 10 min incubation for AtETR2; 1:1 model. As to conditions: both partners purified.

Data set [6] has as its target B1. Put plainly: MST; 40 nM Alexa Fluor 488-labeled receptor (AtETR1 or AtETR2); unlabeled AtETR1 or AtETR2 (4 µM to 0.49 nM) or ETR1-TM C4SC6S (16 µM to 0.98 nM) titrated; 0.0075% (w/v) FosCholine-16; 60% MST power; 1:1 model. As to conditions: both partners purified.
Data set [7] concerns the target T2, Isolated transmembrane domain of AtETR1 …. Put plainly: MST; ETR1 Alexa488-labeled.

Several values for one entry are separate records, joined by “and”; a condition that tells them apart may be missing. Equal entries are not always repeated.

Consider B1, for which the Kd in data set [1] is 96 nM; in data set [2], 147 nM; in data set [3] it was 161 nM; in data set [4] it was 145 nM; in data set [5] it was 165 nM.

B2: Arabidopsis thaliana ethylene receptor ETR1 (AtETR1), full-length, type-I subfamily (receptor, UniProt P49333 1-738, looked up)
chain: MEVCNCIEPQWPADELLMKYQYISDFFIAIAYFSIPLELIYFVKKSAVFPYRWVLVQFGAFIVLCGATHLINLWTFTTHSRTVALVMTTAKVLTAVVSCATALMLVHIIPDLLSVKTRELFLKNKAAELDREMGLIRTQEETGRHVRMLTHEIRSTLDRHTILKTTLVELGRTLALEECALWMPTRTGLELQLSYTLRHQHPVEYTVPIQLPVINQVFGTSRAVKISPNSPVARLRPVSGKYMLGEVVAVRVPLLHLSNFQINDWPELSTKRYALMVLMLPSDSARQWHVHELELVEVVADQVAVALSHAAILEESMRARDLLMEQNVALDLARREAETAIRARNDFLAVMNHEMRTPMHAIIALSSLLQETELTPEQRLMVETILKSSNLLATLMNDVLDLSRLEDGSLQLELGTFNLHTLFREVLNLIKPIAVVKKLPITLNLAPDLPEFVVGDEKRLMQIILNIVGNAVKFSKQGSISVTALVTKSDTRAADFFVVPTGSHFYLRVKVKDSGAGINPQDIPKIFTKFAQTQSLATRSSGGSGLGLAISKRFVNLMEGNIWIESDGLGKGCTAIFDVKLGISERSNESKQSGIPKVPAIPRHSNFTGLKVLVMDENGVSRMVTKGLLVHLGCEVTTVSSNEECLRVVSHEHKVVFMDVCMPGVENYQIALRIHEKFTKQRHQRPLLVALSGNTDKSTKEKCMSFGLDGVLLKPVSLDNIRDVLSDLLEPRVLYEGM
modifications: Alexa Fluor 488 succinimidyl-ester label where used as the labeled partner in MST
notes: ETR1, Arabidopsis thaliana, full-length receptor; source: recombinant, expressed and purified as described in Milić et al., 2018, in FosCholine-16
For B2, the Kd is 326 nM in data set [1]; 177 nM and 217 nM in data set [6]; 491 nM in data set [7]; 169 nM in data set [5].

(Values after PMC6566107, “Molecular Analysis of Protein-Protein Interactions in the Ethylene Pathway in the Different Ethylene Receptor Subfamilies” (Frontiers in Plant Science, 2019).)
